Reference: PMC7407982, “Troponin Aptamer on an Atomically Flat Au Nanoplate Platform for Detection of Cardiac Troponin I”

Key:
troponin complex = troponin complex (UniProt P19429+P63316+P45379); details: 3'-(CH2)6-SH thiol; SERS sandwich: 300 mM NaCl, 20 mM Tris-HCl, 0.5 mM beta-mercaptoethanol, 20% (w/v) glycerol, 0.05% Tween 20, pH 8.0 (or with 20% human serum), 35 °C, 6 h, then …; cited from earlier work
[1] = molecular target: cardiac troponin I (cTnI) (UniProt P19429 2-210); test: SERS sandwich on Au nanoplate; AFM; sandwich with reporter N2; detected from 100 aM in buffer, 100 fM in 20% human serum; AFM capture at 10 pM; SERS sandwich: 300 mM NaCl, 20 mM Tris-HCl, 0.5 mM beta-mercaptoethanol, 20% (w/v) glycerol, 0.05% Tween 20, pH 8.0 (or with 20% human serum), 35 °C, 6 h, then

Molecule: CGCATGCCAAACGTTGCCTCATAGTTCCCTCCCCGTGTCC [Probe aptamer]
- Kd (troponin complex): 3.37 nM

Molecule: CGTGCAGTACGCCAACCTTTCTCATGCGCTGCCCCTCTTA [Reporter aptamer]
- Kd (troponin complex): 3.1 nM

Molecule: CGCATGCCAAACGTTGCCTCATAGTTCCCTCCCCGTGTCC (ssDNA, 3'-(CH2)6-SH thiol) [Probe aptamer]
- binding result [1]: binds
